# Results: US20260069690A1
# B1: S100A11^Q22R-specific TCR (protein)
# chain 1: SQKIEQNSEALNIQEGKTATLTCNYTNYSPAYLQWYRQDPGRGPVFLLLIRENEKEKRKERLKVTFDTTLKQSLFHITASQPADSATYLCALDFTGGGNKLTFGTGTQLKVEL
# chain 2: NAGVMQNPRHLVRRRGQEARLRCSPMKGHSHVYWYRQLPEEGLKFMVYLQKENIIDESGMPKERFSAEFPKEGPSILRIQQVVRGDSAAYFCASSPSTGGIGDTQYFGPGTRLTVL
# Biological target: S100A11 Q22R (mutant 25mer, peptide 60 / P60; residues not given) peptide on HLA-DR (human)
# Assay: MSGV1 TCR-transduced healthy-donor peripheral blood T cells with B cells pulsed with the Q22R peptide. Secretion was inhibited by anti-HLA-DR/-DP/-DQ but not by anti-HLA-ABC. TNFa and Granzyme B were also released. The TIL clone released IFNg, TNFa and Granzyme B, which anti-HLA-DR blocked but anti-HLA-DP and anti-HLA-DQ did not.; full-length, on cells
# Conditions: chains Valpha:Vbeta
binder,measurement,value
B1,IFNg released,> 15000 pg/mL
